Results taken from the supplement of paper PMC9170038.

Test system: K4 kissing-loop RNA reporter
Assay: apparent KD of K4 kissing-loop reporter; higher = weaker reporter binding
Conditions: Eterna round: R107
Protocol: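 RNA-MaP round R107: designed RNA switches with theophylline, tryptophan, arginine or FMN aptamers are transcribed on-chip within common flanks. They are titrated with a labelled K4 kissing-loop RNA reporter in RNA-MaP buffer (100 mM Tris pH 7.5, 80 mM KCl, 4 mM MgCl2), without ligand or with the indicated ligand. Median apparent KD per design.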

[1] = input ligand: theophylline 20 uM
[2] = input ligand: tryptophan 2.4 mM
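Also: bound reporter read as fluorescence of individual clusters on recovered sequencing chips by microscopy, with normalized cluster intensities fitted with a binding model.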

Sequence	apparent KD of K4 kissing-loop reporter (input ligand: FMN 200 uM) [nM]	apparent KD of K4 kissing-loop reporter (input ligand: arginine 13.2 mM) [nM]	apparent KD of K4 kissing-loop reporter (input ligand: none) [nM]	apparent KD of K4 kissing-loop reporter [1] [nM]	apparent KD of K4 kissing-loop reporter [2] [nM]
UCGGACCCUGGAGGAUAUGAGUCGAGUGAUGUUCGGCGGUCCAUGCUGGUGCGGCGUUAUGCCCUUUUAGAAGGCCAGGGUCCGA [#2 Exclusion - FMN B Attempt #12 (HarryS)]	220	147	194	174	162
GUAGCACUCGAUAGUGAUGUUAUCGAGGGCAAGGAUAUCACCUCAGUGAGAAGGUGUCCUUGAUAACUGCUACGGGAAUAUCCCA [Omei KL FMN A Exc D v8]	270	90.9	101	106	99.6
UGUGUUGUUGUGAUGUUUGGUGUUGUAGGGCAGGAUAUCGUAGAGGCGAGAAGGGCUUUUGUGCGGUAUGAGUGAUGUUUGUAGG [svvsmullin]	119	89.3	160	134	122
GAAUUUGCCGAUCAAAGUGAUGUUUUGGAUACCAGCCAUCAAGCUGGCCCUUGGCAGCCAACGUCGGCUGGCGACCGUGCGGACU [theeternabot_exclusion_KL_Theo_A_50]	383	253	347	310	285
AGACUUCACCGAAGGAGCGACGUAGCCUAGUGAUGUUAGGCAAGAGAGAAAUCUCUUAAACGUCAGGUAGGUCGCGGUGAAGUCA [Omei KL Arginine B SS C v3]	262	163	202	227	190
UGGAGUUGACGAAAAGUCAACUCCUGAGAAGGAGCGGACGAAAGUCCAGGUAGGUCGCUCACUACCAGUGAUGUUGGUACUUUAA	228	285	320	361	222
AUAGGAGUGAUGUUCCUUAGUCCCUCCGAUACCAGUAUGGAAACAUACCCUUGGCAGCGGUGGACCGCAGAUUAGGAAACUAGUC [Theophylline A K4 4]	232	238	216	231	206
GUUAAGUCGCGAAGGAGCGCGAACUAACAACGCAGUGAUGUUGCGUUGUACGUAGUAUAAUCGCAGGUAGGUCGCGCGACAGGCC [Arg B SS t16]	116	85.5	98.4	81	92.3
GCGUCCAUGUAUGAUACCAGACUUUUUUUAGUAGGUGACGAUAGUGAUGUUAUACGUCAAGUCCCUUGGCAGCAUGACCUAUUAU [theeternabot_exclusion_KL_Theo_B_23]	423	461	418	694	587
UGACAUUGCUCAGAUACCAGACUUGAGGAUCACCCAGGUGCCAAACGUACAAUAAUAAAAGUCCCUUGGCAGCUGAGCAAUGUCU [TheoBX 14]	65.7	51.7	30.2	69.9	55.3
GCACGAGUGAUGUUCGUUGGCAUGCAUUCCGAGGAUAUGGGAUUAGCCAGAAGGCGGAAUCGGUCUUCGAGUGAUGUUCGAAGAU [Same State FMN A GF 13]	104	87.8	113	87.2	109
UUAGGGAUCUCGGCCGCCACUCGUGGGAAAUGGGCCUCAGGGAUAUAGUGAUGUUAUGUAAAGAAGAGGACCGGGAGAAGGAAGG [ExTryptoB.Di]	451	364	476		155
UUAGUCUAGAGAAGGAGCGAGUGAUGUUCGCAUGAUCUCAUGAUAUCAUGAGAUCGAAAUCCUCAGGUAGGUCGCUCUAGACAUU [AK6 Exc Arginine B]	493	372	534	424	545
CGCCAUAACACGGCCGCCACUCAUCAAGCUCAGUGAUGUUGAGCAGCAGCUGCAAUCGCGAUUACGAGGACCGGGUGCUGUCUGU [theeternabot_sameState_KL_Trp_B_50]	286	329	314	357	231
UUUAUAUAGUCGGCCGCCACUGAUUUUUAUAUAUGUUUAUGUUUAUACGAGUGAUGUUCGAUAUACAGGACCGGGACUUUUGUUA [JR_SSTryptoB_Sub017]	268	291	294	306	207
GGCAGUGAUGUUGCCUAAGCAACGCAUGCAGAGGAUAUUCGUUCGGGAAGAAGGCUGCAGCGUUCUCUCGUCAGUGAUGUUGGCG [Same State FMN A GF 24]	140	115	127	130	114
AGCCUGAUAUAAGGAUAUCCGGACCGAGUAACUGAGUGAUGUUCAGGUGAAUAAUGUCUCACAUUGGGAGAAGGUAUUUCAGCGA [theeternabot_sameState_KL_FMN_B_21]	232	182	251	276	225
UUACUACCCAGUGAUGUUGGGUAGCGGCGGCGAGGACCGGUACGGCCGCCACUCGGCGCACGGGAGUGAUGUUCCUGGGAAUAUA [Same State Tryptophan A GF 10]	281	187	375	709	254
GCAGCAAAUAAACGAGUGAUGUUCGACGAUACCAGCCUCGAUAGAGGCCCUUGGCAGCGUAAAUGAUCACAAAGCCAAGGGCUGC [#SwitchBubble 1]	332	375	396	366	362
AGAAACUUGUAUGUCGGCCCUGCGCGCGAUACCAGCCAAAUGGAUGGCCCUUGGCAGCGCAGCGAGUGAUGUUCGCCCGGCUGAC [Exclusion Theophylline A GF 21]	77	108	95.9	110	65.7
UGGAGUUGACGAAAAGUCAACUCCUGAGAUACCAGUGACGAAAGUCACCCUUGGCAGCUCACUGCCAGUGAUGUUGGUAUAUAAA [#OpenEnded 4]	82.6	71.4	61	146	124
UGACAUUGCUCAGAUACCAGACUUGAGGAACACCCAAGUGCCAAAACGUACUAAAUAAAAGUCCCUUGGCAGCUGAGCAAUGUCU [TheoBX 13]	91.5	30.6	46.2	60.9	59.4

Sequence	apparent KD of K4 kissing-loop reporter (input ligand: FMN 200 uM) [nM]	apparent KD of K4 kissing-loop reporter (input ligand: arginine 13.2 mM) [nM]	apparent KD of K4 kissing-loop reporter (input ligand: none) [nM]	apparent KD of K4 kissing-loop reporter [1] [nM]	apparent KD of K4 kissing-loop reporter [2] [nM]
GCCGUACGCAUGGAUACCAGAGUCUUUCUAGUGCCUCUGGAGUACAGUGAUGUUGUGCCACUCCCUUGGCAGCCAUGCGUACGGC	1080	647	906	671	768
UUGUUUGGUUGAGAGGUUGGGCGAGAUGAUACCAGUAUAGUAUUGUACCCUUGGCAGCAUAUGAGAGAUAUAGUGAUGUUGUAUG [SSTheophA.X]	521	358	529	532	411
AAUACUAUCAGAAGGAGCGUGGAAUAUUCAUCUGUAUCUAAUACGAGUGAUGUUCGUAAUUCACAGGUAGGUCGCUGAUUAAUAA [whbob_Ex_Arginine_B_2th157]	274	275	253	266	231
AAUGUGCAGGGAAGGAGCGUAGUCCAGUGCUGUUGGAGUUAGAUACCAGUGAUGUUGGUUAUACAGGUAGGUCGCCCUAGAGCGC [whbob_Ex_Arginine_B_2th162]	114	119	124	141	96.3
GCUAUGGUUGGAAGGAGCGUUUAAUUACUAAUAAGAGUGAUGUUCGAUAGUAGGUAAUUGUAGCAGGUAGGUCGCCAACUAUAGC [KL-Arg B25]	215	232	186	222	224
AAUUAGCCGUAAGAAUAGUGAUGUUAUUCACGAGGACCGGUACGGCCGCCACUCGAUAUUGGAAUAUUGAAUUUUUUAUUCUAAA [JR_SSTryptoA_Sub009]	524	474	552	577	291
GAACGGCUGGCGGCCGCCACUGGUAUACGAGUGAUGUUCGGAUACACAUAGAAUAAGGUGAUUGACAGGACCGGGUCAGAGCCGG [#15 K4 Tryptophan B Same State]	251	197	234	246	180
GGCCACGGGCGAGGAUAUGGGCAUGAUUCAUCCUGGAGUGAUGUUCCAGGUCCUACGUUUCGAGCACCAGAAGGCGUUUGUUGCU [Biazaqure]	166	521	646	489	524
UGAUACCAGACGGCCGCCACUGCGCCAGUCAAUGACUGAGCGCGGUGGCGCUCAGUGAUGUUGAGCAGGACCGGGUCUGGUAUCU [Mod of Eli's TrypBX 8 v5]	149	126	146	144	147
AAGCCAGUGAUGUUGGCAAAAUUUACUGAAGGAGCGCGUGAAAACGCAGGUAGGUCGCAGAACCUUGCCAACUAACACGAAAGUG [Ex Arginine A K4 20]	261	237	253	469	251
UGUCAUUGGUCGGCCGCCACUUCGUGUGGAGUGAUGUUUUGUAGGACGGAUCGAAAGAUCUGUCGAAGGACCGGGACCGAUGACU [FiskerMod 19 - Jieux - Same State - Tryptophan B]	96.8	85.8	87.6	33.5	285
GUAGCUAAAGAAGGAUAUCGGAUCCAAAUCAAGCAGUGAUGUUGCGUGAAGAUCGGCUCCAUGCCGCGAGAAGGUCUUUUCUGUU [theeternabot_sameState_KL_FMN_B_18]	179	305	207	284	147
GUCCACACUGCAGGAUAUGGAGAAGUAGCGAGGGAGUUUGGAAGCACACCUCUGGCAGUGAUGUUGCCAGAAGGGCGGUGCGGCG [Inlaindi]	109	80.2	80.6	84.1	93.9
GGUAGCAUGGCGGCCGCCACUGCGAAUGACGGCCACGUGAAAGUUGCCGCAGAGUGAUGUUCUGGCAGGACCGGGCCAUGCUACC	432	372	515	477	354
UUACCAAGUGAUGUUUGGAAAUAUCCUAGGCAGGAUAUGCGGAAACGCAGAAGGGCCACCUGAUAGUGAAGGAAACUUCGCUAUC [Ex FMN A 1]	168	141	152	130	151
CGUUGGAGUGAUGUUCCAGGUUGUACGGAUACCAGCCAAGCCAGCGGCCCUUGGCAGCCGACUAUUGCAGUGAUGUUGUGAUGCC [Same State Theophylline A GF 3]	715	539	751	772	524
AAAUAGGAGUAAAUAAACAAUUUCCUUAGAGAGGAUAUUGGUAAUACAAGAAGGCUCUGUUGGGAGUGAUGUUCCCAUAACGCCU [Exclusion FMN A GF13]	58.3	66.6	56.6	65.9	56.7
ACAUCGGUUGAGAGUGAUGUUCCUUGUGUUCGAGGACCGGUACGGCCGCCACUCGGGUAGAAAAUAACAGAUGUGUUUGAUUUUU [BDazzled - #16 SS Tryptophan A]	163	88.4	144	308	244
AAGGUUGUGCAUGGGAGUGAUGUUCCCAGGCAGGAUAUCGCUCACGCGAGAAGGGCUAGCACAACCGCUCAAGAAACUUGAGCAA [Omei KL FMN A SS C v4]	117	97.1	113	116	94.5
GGGAGUAGUGCGGCCGCCACUGUGAAAGAAGAAGAAUAUAGUGAUGUUAUAUAGGAAAUAAAGAAUAGGACCGGGCAUUAGAUUU [SSTRyptB.L]	282	190	221	186	161
AUGUCUGAUAGCAGUGAUGUUGCUUCGGAUACCAGACGAGAUCAUGUCCCUUGGCAGCUGACACGGCACGUGCUAGGUUAGAUGG [whbob_Ex_Theo_A_th73]	121	115	111	94.7	115
